The text below walks through data of publication PMC12227774.

Series [1] concerns the target YBX1 CSD (human, UniProt P67809 48-159). Description: BLI. A general note: In BLI a coated tip is dipped into the sample, and binding shifts an interference pattern.
Series [2] concerns the target YBX3 CSD (human, UniProt P16989 82-174). The experiment in a line: BLI.

Broadly, the Kd is a measure of binding affinity in units of concentration. Higher therefore signals lower affinity.

Chain of YBX3 CSD (P16989 82-174): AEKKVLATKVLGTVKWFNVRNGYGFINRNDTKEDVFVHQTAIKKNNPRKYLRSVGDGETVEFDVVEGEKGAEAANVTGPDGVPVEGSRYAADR
Chain of YBX1 CSD (P67809 48-159): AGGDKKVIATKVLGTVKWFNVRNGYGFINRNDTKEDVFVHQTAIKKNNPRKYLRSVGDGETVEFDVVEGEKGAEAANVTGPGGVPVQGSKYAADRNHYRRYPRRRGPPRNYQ

B1: FURIN-25nt (structured_RNA)
RNA: GGAGGCCACCUCUCCAAGGGCUUCU
modifications: none
For B1, the Kd came out at 346 nM in series [1] and 87.5 nM in series [2].

B2: FURIN-25nt-m5C (structured_RNA)
RNA: GGAGGCCACCUCUCCAAGGGCUUCU
modifications: m5C at position 12 (NSUN6-methylated)
For the molecule B2, the figures for the Kd in series [1] and in series [2] were 214 nM and 45 nM, respectively.
